What was measured:
Assay in all cases: epitope map assay, OD on overlapping 10-mer peptides
[1] = target: T1, FRHDSGYEVH
T1 construct: Aβ 4-13
T1 peptide: FRHDSGYEVH

[2] = target: T2, AIIGLMVGGV
T2 construct: Aβ 30-39
T2 peptide: AIIGLMVGGV

[3] = target: T3, MVGGVVIATV
T3 construct: Aβ 35-43 + one further APP residue
T3 peptide: MVGGVVIATV

[4] = target: T4, NKGAIIGLMV
T4 construct: Aβ 27-36
T4 peptide: NKGAIIGLMV

[5] = target: T5, HHQKLVFFAE
T5 construct: Aβ 13-22
T5 peptide: HHQKLVFFAE

[6] = target: T6, DAEFRHDSGY
T6 construct: Aβ 1-10
T6 peptide: DAEFRHDSGY

[7] = target: T7, KLVFFAEDVG
T7 construct: Aβ 16-25
T7 peptide: KLVFFAEDVG

[8] = target: T8, MDAEFRHDSG
T8 construct: APP flank + Aβ 1-9
T8 peptide: MDAEFRHDSG

[9] = target: T9, KGAIIGLMVG
T9 construct: Aβ 28-37
T9 peptide: KGAIIGLMVG

[10] = target: T10, DSGYEVHHQK
T10 construct: Aβ 7-16
T10 peptide: DSGYEVHHQK

[11] = target: T11, VKMDAEFRHD
T11 construct: APP flank + Aβ 1-7
T11 peptide: VKMDAEFRHD

[12] = target: T12, SEVKMDAEFR
T12 construct: APP flank + Aβ 1-5
T12 peptide: SEVKMDAEFR

[13] = target: T13, QKLVFFAEDV
T13 construct: Aβ 15-24
T13 peptide: QKLVFFAEDV

[14] = target: T14, RHDSGYEVHH
T14 construct: Aβ 5-14
T14 peptide: RHDSGYEVHH

[15] = target: T15, VGSNKGAIIG
T15 construct: Aβ 24-33; this label stands at two neighbouring bars
T15 peptide: VGSNKGAIIG

[16] = target: T16, AEDVGSNKGA
T16 construct: Aβ 21-30
T16 peptide: AEDVGSNKGA

[17] = target: T17, VFFAEDVGSN
T17 construct: Aβ 18-27
T17 peptide: VFFAEDVGSN

[18] = target: T18, ISEVKMDAEF
T18 construct: APP flank + Aβ 1-4
T18 peptide: ISEVKMDAEF

[19] = target: T19, YEVHHQKLVF
T19 construct: Aβ 10-19
T19 peptide: YEVHHQKLVF

[20] = target: T20, FAEDVGSNKG
T20 construct: Aβ 20-29
T20 peptide: FAEDVGSNKG

[21] = target: T21, DVGSNKGAII
T21 construct: Aβ 23-32
T21 peptide: DVGSNKGAII

[22] = target: T22, HQKLVFFAED
T22 construct: Aβ 14-23
T22 peptide: HQKLVFFAED

[23] = target: T23, EEISEVKMDA
T23 construct: APP flank + Aβ 1-2
T23 peptide: EEISEVKMDA

[24] = target: T24, SGYEVHHQKL
T24 construct: Aβ 8-17
T24 peptide: SGYEVHHQKL

[25] = target: T25, LMVGGVVIAT
T25 construct: Aβ 34-43
T25 peptide: LMVGGVVIAT

[26] = target: T26, EVHHQKLVFF
T26 construct: Aβ 11-20
T26 peptide: EVHHQKLVFF

[27] = target: T27, KMDAEFRHDS
T27 construct: APP flank + Aβ 1-8
T27 peptide: KMDAEFRHDS

[28] = target: T28, SNKGAIIGLM
T28 construct: Aβ 26-35
T28 peptide: SNKGAIIGLM

[29] = target: T29, FFAEDVGSNK
T29 construct: Aβ 19-28
T29 peptide: FFAEDVGSNK

[30] = target: T30, EISEVKMDAE
T30 construct: APP flank + Aβ 1-3
T30 peptide: EISEVKMDAE

[31] = target: T31, EFRHDSGYEV
T31 construct: Aβ 3-12
T31 peptide: EFRHDSGYEV

[32] = target: T32, GLMVGGVVIA
T32 construct: Aβ 33-42
T32 peptide: GLMVGGVVIA

[33] = target: T33, LVFFAEDVGS
T33 construct: Aβ 17-26
T33 peptide: LVFFAEDVGS

[34] = target: T34, GSNKGAIIGL
T34 construct: Aβ 25-34
T34 peptide: GSNKGAIIGL

[35] = target: T35, EVKMDAEFRH
T35 construct: APP flank + Aβ 1-6
T35 peptide: EVKMDAEFRH

[36] = target: T36, IIGLMVGGVV
T36 construct: Aβ 31-40
T36 peptide: IIGLMVGGVV

[37] = target: T37, HDSGYEVHHQ
T37 construct: Aβ 6-15
T37 peptide: HDSGYEVHHQ

[38] = target: T38, GYEVHHQKLV
T38 construct: Aβ 9-18
T38 peptide: GYEVHHQKLV

[39] = target: T39, GAIIGLMVGG
T39 construct: Aβ 29-38
T39 peptide: GAIIGLMVGG

[40] = target: T40, AEFRHDSGYE
T40 construct: Aβ 2-11
T40 peptide: AEFRHDSGYE

[41] = target: T41, EDVGSNKGAI
T41 construct: Aβ 22-31
T41 peptide: EDVGSNKGAI

[42] = target: T42, IGLMVGGVVI
T42 construct: Aβ 32-41
T42 peptide: IGLMVGGVVI

Measured: binding result

B1: mouse 15C11 antibody (antibody, V domains shown)
VH: EVKLVESGGGLVQPGGSLKLSCAASGFTFSRYSMSWVRQTPEKRLELVAKISNSGDNTYYPDTLKGRFTISRDNAQNTLYLQMSSLKSEDTAMYYCASGDYWGQGTTLTVSS
VL: DVVMTQTPLSLPVSLGDQASISCRSSQSLVHSDGNTYLHWYLQKPGQSPKLLIYKVSNRFSGVPDRFSGSGSGTDFTLKISRVEAEDLGVYFCSQSTHVWTFGGGTKLEIK
notes: Mouse monoclonal antibody from a hybridoma; The claims number the mature chains 1-111 and 1-112; also called mouse antibody 15C11
binds: [5] | [7] | [13] | [17] | [22] | [29] | [33]
no binding: all other assays above
